What was measured:
[1] = system: 125I-prothrombin
[2] = molecular target: 125I-prothrombin; remark: listed apart in the source

Molecule	prothrombin cleavage assay (125I-prothrombin, 10% SDS-PAGE, autoradiography); positive control [1]	one-stage clotting assay (PCA) in coagulation factor-deficient human plasmas [2]	prothrombin cleavage assay (125I-prothrombin, 10% SDS-PAGE, autoradiography); purified mfgl2 fusion protein [2]
Human Factor Xa	Addition of human factor X in the presence of calcium and factor V produced cleavage products corresponding to known derivatives of prothrombin		
mfgl2 fusion protein (murine fgl2 with six histidine residues followed by an enterokinase site at the N-terminus) (protein) VEEHNLTEGLEDASAQAACPARLEGSGRCEGSQCPFQLTLPTLTIQLPRQLGSMEEVLKEVRTLKEAVDSLKKSCQDCKLQADDHRDPGGNGGNGAETAEDSRVQELESQVNKLSSELKNAKDQIQGLQGRLETLHLVNMNNIENYVDNKVANLTVVVNSLDGKCSKCPSQEHMQSQPVQHLIYKDCSDHYVLGRRSSGAYRVTPDHRNSSFEVYCDMETMGGGWTVLQARLDGSTNFTREWKDYKAGFGNLEREFWLGNDKIHLLTKSKEMILRIDLEDFNGLTLYALYDQFYVANEFLKYRLHIGNYNGTAGDALRFSRHYNHDLRFFTTPDRDNDRYPSGNCGLYYSSGWWFDSCLSANLNGKYYHQKYKGVRNGIFWGTWPGINQAQPGGYKSSFKQAKMMIRPKNFKP		The PCA expressed by recombinant virus infected cells was independent of all factors except 11 (prothrombin)	incubation of 1251-prothrombin with uninfected High 5 cell homogenates or purified protein exhibited no prothrombin cleavage
